Measurements taken from patent publication US7341836B2, “Modified cyclic nucleotide gated ion channels” (The Regents of the University of Colorado, priority 2001, dated 2008).
Entries after “also recorded” stand apart in the source; their conditions may differ.

B1: C460W/E583M: modified rat olfactory cyclic nucleotide-gated ion channel containing the C460W/E583M mutation, SEQ ID NO:6 (protein, listed as Rattus norvegicus)
chain: MMTEKSNGVKSSPANNHNHHPPPSIKANGKDDHRAGSRPQSVAADDDTSPELQRLAEMDTPRRGRGGFQRIVRLVGVIRDWANKNFREEEPRPDSFLERFRGPELQTVTTHQGDDKGGKDGEGKGTKKKFELFVLDPAGDWYYRWLFVIAMPVLYNWCLLVARACFSDLQRNYFVVWLVLDYFSDTVYIADLIIRLRTGFLEQGLLVKDPKKLRDNYIHTLQFKLDVASIIPTDLIYFAVGIHSPEVRFNRLLHFARMFEFFDRTETRTSYPNIFRISNLVLYILVIIHWNACIYYVISKSIGFGVDTWVYPNITDPEYGYLAREYIYCLYWSTLTLTTIGETPPPVKDEEYLFVIFDFLIGVLIFATIVGNVGSMISNMNATRAEFQAKIDAVKHYMQFRKVSKDMEAKVIKWFDYLWTNKKTVDEREVLKNLPAKLRAEIAINVHLSTLKKVRIFQDWEAGLLVELVLKLRPQVFSPGDYICRKGDIGKEMYIIKEGKLAVVADDGVTQYALLSAGSCFGEISILNIKGSKMGNRRTANIRSLGYSDLFCLSKDDLMEAVTEYPDAKKVLEERGREILMKMGLLDENEVAASMEVDVQEKLEQLETNMDTLYTRFARLLAEYTGAQQKLKQRITVLETKMKQNHEDDYLSDGINTPEPTAAE

Key:
[1] = tested on: HEK-293 cells expressing C460W/E583M channels; assay: Single-cell local cAMP measurement, perforated patch or whole cell currents through C460W/E583M channels; type: cell-based, human; details: 1 μM PGE1
Protocol: Single-cell cAMP measurements were made using either the perforated patch or whole cell patch clamp technique (Rich et al. [2000], supra). In the perforated patch configuration, the pore forming antibiotic nystatin was added to the pipette solution to gain electrical access to the cell's interior while retaining divalent cations and larger molecules like cAMP in the cell. Recordings were made using an Axopatch-200A patch clamp amplifier (Axon Instruments). Pipette resistance was limited to 5 ΩM and averaged 3.4±0.5 ΩM (measurements provided herein are expressed as mean±standard deviation). In the perforated patch configuration, a steady access resistance was obtained 5-15 minutes following seal formation. […] These quantities were monitored throughout the experiments to ensure stable electrical access was maintained. […] The time to exchange the extracellular solution was measured by applying a 140 mM KCl solution to a depolarized cell (+50 mV), and monitoring changes in current through endogenous voltage-gated K^+ channels; for each experiment, it was less than 60 ms. […] In most of these experiments, the pipette solution also contained 1 mM cAMP; at the end of the experiment the maximal cAMP-induced current could be measured by rupturing the cell membrane at the tip of the pipette with suction, allowing saturating cAMP to diffuse to the channels (See, Rich et al. [2000], supra). […]

[2] = tested on: rat olfactory CNG channel α subunit; assay: Excised inside-out patch recordings, cyclic nucleotide dose-response of CNG channel constructs; type: biochemical; details: for Imax^cGMP/Imax^cAMP: current at saturating cGMP divided by current at saturating cAMP
Protocol: (§1) As described in greater detail herein, the effects of modifications to CNG channels were assessed using the Hill equation, I/Imax=[cNMP]^N/([cNMP]^N+K1/2^N), where I/Imax is the fraction of maximal current, cNMP represents cyclic nucleotide, K1/2 is the concentration that gives half-maximal current, and N is the Hill coefficient, an index of cooperativity. I/Imax^cGMP/Imax^cAMP is the current induced by saturating cGMP divided by the current induced by saturating cAMP. Data (mean±standard deviation of three experiments) were obtained from excised membrane patches using standard patch clamp techniques.
(§2) To assess the cyclic nucleotide sensitivity of different CNG channel constructs, excised, inside-out patch recordings were made at room temperature (20-21° C.) using an Axopatch-200A patch clamp amplifier (Axon Instruments Inc.). Pipettes were pulled from borosilicate glass and heat polished. Pipettes were lowered onto the cells and gigaohm seals were formed. Patches were excised by shearing cells from the pipette with a jet of liquid. Ionic currents were elicited by 250 ms pulses to membrane potentials of +50 and −50 mV from a holding potential of 0 mV. Current records were sampled at five times the filter setting and stored on an IBM compatible computer. Records were corrected for errors due to series resistance (pipette resistance was 4.1 ±0.1 MΩ). Both the pipette and bath solutions contained (mM): 130 NaCl, 2 HEPES, 0.02 EDTA, and 1 EGTA, pH 7.6. Cyclic nucleotide-induced currents were obtained from the difference between currents in the presence and absence of cyclic nucleotides. Dose response curves for cAMP and cGMP were obtained at +50 and −50 mV in the same patch. The effects of the modifications were assessed using the Hill equation, I/Imax=[cNMP]^N/([cNMP]^N+K1/2^N), where I/Imax is the fraction of maximal current, cNMP represents cyclic nucleotide, K1/2 is the concentration that gives half-maximal current, and N is the Hill coefficient, an index of cooperativity. K1/2 and N for cAMP were 36±5 μM, 10±2 μM, 1.0±0.3 μM, and […] for WT, E583M, C460/E583M, and Δ61-90/C460W/E583M channels, respectively (See, Rich et al., J. Gen. Physiol. [2001], supra).
(§3) The cyclic nucleotide sensitivity of the C460W/E583M CNG channel was assessed in excised, inside-out patches as known in the art (See, Rich et al. [2001], supra). K1/2 and N were 1.1±0.3 μM and 2.1±0.4 at +50 mV; and 1.0±0.3 μM and 2.0 ±0.3 at −50 mV (n=11). With these values, the cAMP concentration could be calculated from currents measured in perforated patch experiments (Rich et al. Proc. Natl. Acad. Sci. [2001], supra).

[3] = tested on: HEK-293 cells expressing C460W/E583M channels; assay: PGE1-induced cAMP responses in cell populations (Ca2+ influx through C460W/E583M channels); type: cell-based, human; details: 100 nM PGE1
Excerpt: In this Example, experiments conducted to detect cAMP levels in cells are described. Changes in cyclic AMP concentrations in response to PGE1 stimulation were monitored in HEK-293 cells by measuring Ca^2+ influx through C460W/E583M CNG channels (See, Rich et al. [2001], supra). HEK-293 cells express a variety of extracellular receptors including prostanoid receptors (Thomas and Hoffman, Mol. Pharmacol., 49:907-914 [1996]), and the cAMP-specific PDE type IV (Rich et al. [2001], supra; and Hoffmann et al., EMBO J., 18:893-903 [1999]). Based on PCR analysis, these cells also appear to express AC types II, […], VI, and VII, (Hellevuo et al., Biochem. Biophys. Res. Commun., 192:311-318 [1993]). C460W/E583M channels were expressed heterologously using an adenovirus construct (See, Rich et al. [2001], supra). The Ca^2+ permeability of the channel was used to detect changes in local cAMP concentration; the fluorescent indicator fura-2 was used to monitor Ca^2+ entry. With this approach, incremental changes in cAMP concentration are readily detected as changes in relative Ca^2+ influx rates through C460W/E583M channels (See, Rich et al., [2001], supra).
Transient responses were observed over a large range of PGE1 concentrations, from 0.01 to 10 μM (FIG. 17, Panel A). […] The decline was unlikely to result primarily from a reduction in AC activity (e.g., receptor desensitization), because of the sustained accumulation of total cellular cAMP in the presence of IBMX (See, FIG. 16, Panel B). To verify this, 100 μM IBMX was added at various times after PGE1 application.
To test whether PGE1 did indeed increase the total PDE activity, 100 nM PGE1 were added at various times after the initial application of 100 nM PGE1 (a subsaturating concentration). There was a negligible response to the subsequent addition of PGE1, even after 50 min (FIG. 17, Panel D). Taken together, the results of the experiments shown in FIG. 17, Panels C and D argue that the cAMP transient is due to an initial increase in AC activity, followed by a more profound increase in PDE activity. […] As indicated herein, these processes are crucial for the generation of spatially and temporally distinct cAMP signals.

[4] = target: T1, rat olfactory CNG channel α subunit (Rattus norvegicus, UniProt Q00195, C460W/E583M); assay: Excised inside-out patch recordings, cyclic nucleotide dose-response of CNG channel constructs; type: biochemical; details: for N: Hill coefficient, n=11, Example 9
T1 construct: expressed in transfected cells; host or cells: HEK-293 (adenovirus infection)
T1 sequence (Q00195 1-664 C460W/E583M): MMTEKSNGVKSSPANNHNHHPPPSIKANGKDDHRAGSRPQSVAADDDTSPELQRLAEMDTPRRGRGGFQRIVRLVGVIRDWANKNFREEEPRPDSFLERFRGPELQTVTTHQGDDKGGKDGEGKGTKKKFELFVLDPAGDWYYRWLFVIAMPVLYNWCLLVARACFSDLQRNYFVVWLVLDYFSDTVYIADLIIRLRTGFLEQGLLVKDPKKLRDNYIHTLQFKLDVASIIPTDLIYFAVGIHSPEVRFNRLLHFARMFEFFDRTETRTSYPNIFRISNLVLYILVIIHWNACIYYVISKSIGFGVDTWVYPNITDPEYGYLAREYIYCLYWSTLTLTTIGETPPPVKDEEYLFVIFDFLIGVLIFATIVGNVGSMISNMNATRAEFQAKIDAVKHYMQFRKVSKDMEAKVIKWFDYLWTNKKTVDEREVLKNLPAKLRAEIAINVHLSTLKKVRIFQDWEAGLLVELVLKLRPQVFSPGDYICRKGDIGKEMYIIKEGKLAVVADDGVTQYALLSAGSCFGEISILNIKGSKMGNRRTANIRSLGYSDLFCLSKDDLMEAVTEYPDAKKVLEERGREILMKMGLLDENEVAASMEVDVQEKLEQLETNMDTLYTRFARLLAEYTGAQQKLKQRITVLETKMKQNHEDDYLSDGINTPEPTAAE
Protocol: as §1, §2, §3

[5] = tested on: HEK-293 cells expressing CNG channels; assay: Forskolin-induced cAMP accumulation monitored by Ca2+ influx (fura-2) through expressed CNG channels; type: cell-based, human; details: 100 μM IBMX; forskolin 0-50 μM
Protocol: Next, experiments were conducted to assess the ability of each channel construct to detect increases in local cAMP concentration. Changes in cAMP concentration were detected using fura-2 to monitor Ca^2+ influx through CNG channels, as described in the Examples. Ca^2+ influx induced by different concentrations of forskolin, an AC activator, in the presence of 100 μM IBMX, a nonselective PDE inhibitor was measured. This approach allowed comparisons to be made between the cAMP sensitivities of the different channels to changes in cAMP, regardless of variations in expression levels between experiments. In HEK-293 cells expressing the WT channel, addition of forskolin was followed by a brief delay and an increase in Ca^2+ influx (See, FIG. 7, Panel A). The delay decreased and the rate of Ca^2+ influx increased in a dose-dependent manner. Neither effect was saturated at 50 μM forskolin. In cells expressing the E583M channel, addition of forskolin was also followed by a brief delay and an increase in Ca^2+ influx (FIG. 7, Panel B). As with the WT channel, the delay and the initial rate of Ca^2+ influx were dose-dependent. […] In cells expressing the Δ61-90/C460W/E583M channel, addition of forskolin caused similar increases in Ca^2+ influx as the E583M channel, including saturation of the delay and rate of influx at 20 μM (compare FIG. 7, Panel B with FIG. 7, Panel D). The increased response of the modified channels to forskolin treatment is consistent with the apparent cAMP affinities measured in excised patches in the absence of Ca^2+-CaM (C460W/E583M>E583M˜Δ61-90/C460W/E583>WT channels). There are several factors that may have contributed to the apparent lack of a Ca^2+-CaM effect on the channels.
Briefly, HEK-293 were maintained in MEM (Life Technologies Inc.) supplemented with 26.2 mM NaHCO3, 10% (v/v) fetal bovine serum (Gemini), penicillin (50 μg/mL), and streptomycin ([…]), pH 7.0, at 37° C. in a humidified atmosphere of 95% air and 5% CO2. Cells were plated at ˜60% confluence in 100 mm culture dishes twenty-four hours prior to infection with the CNG-channel-encoding adenovirus constructs (multiplicity of infection=10 plaque forming units per cell). […] Twenty-four hours post-infection cells were detached with phosphate-buffered saline containing 0.03% EDTA, resuspended in serum-containing medium, and assayed within 12 hours.

Molecule	average amplitude of the cAMP signal ([1]; five cells)	width at half height of the cAMP response ([1]; perforated patch, −20 mV, six cells)	effect on CNG channel activity in excised membrane patches ([2]; 100 μM IBMX, 1 μM PGE1)	slopes of the initial PGE1-induced responses [3]	Imax^cGMP/Imax^cAMP ([2]; +50 mV)	Imax^cGMP/Imax^cAMP ([2]; −50 mV)	lower K1/2 for cAMP than the E583M channel [4]	N ([4]; +50 mV)	N ([4]; −50 mV)	forskolin concentration at which delay and rate of Ca2+ influx saturated [5]
CCCCC[C@H](O)/C=C/[C@H]1[C@H](O)CC(=O)[C@@H]1CCCCCCC(=O)O [PGE1, prostaglandin E1]	0.7 ± 0.4 µM	87 ± 53 s	no direct effect on channels; also recorded: no change in current was observed	0.0038 ± 0.0003 s⁻¹						
B1					0.84 ± 0.10	0.50 ± 0.10	~10 fold	2.1±0.4	2.0 ±0.3	5 µM
